{"source": "patent US20040253243A1", "about": "“Aptamer therapeutics useful in ocular pharmacotherapy” (priority 2003, published 2004)", "molecules": {"B1": {"name": "GGGAGGACGAUGCGGACAGAGUAUUAUAGAGUAUGUAUAGCUAUACUGUCCAGACGACUCGCCCGA (nucleic acid)", "chain": "rGrGrGrArGrGrAfCrGrAfUrGfCrGrGrAfCrArGrArGfUrAfUfUrAfUrArGrArGfUrAfUrGfUrAfUrArGfCfUrAfUrAfCfUrGfUfCfCrArGrAfCrGrAfCfUfCrGfCfCfCrGrA", "modifications": "aptamer"}, "B2": {"name": "GGGAGGACGAUGCGGGGAGGUUAUUACAGAGUCUGUAUAGCUGUACUCCCAGACGACUCGCCCGA (nucleic acid)", "chain": "rGrGrGrArGrGrAfCrGrAfUrGfCrGrGrGrGrArGrGfUfUrAfUfUrAfCrArGrArGfUfCfUrGfUrAfUrArGfCfUrGfUrAfCfUfCfCfCrArGrAfCrGrAfCfUfCrGfCfCfCrGrA"}, "B3": {"name": "GGGAGGACGAUGCGGAUAGAGUAUUAUAGAGUAUGUAUAGCUAUACUAUCAGACGACUCGCCCGA (nucleic acid)", "chain": "rGrGrGrArGrGrAfCrGrAfUrGfCrGrGrAfUrArGrArGfUrAfUfUrAfUrArGrArGfUrAfUrGfUrAfUrArGfCfUrAfUrAfCfUrAfUfCrArGrAfCrGrAfCfUfCrGfCfCfCrGrA", "modifications": "aptamer"}, "B4": {"name": "GGGAGGACGAUGCGGACAGAGUAUUAUAGAGUAUGUAUAGCUAUACUGUCAGACGACUCGCCCGA (nucleic acid)", "chain": "rGrGrGrArGrGrAfCrGrAfUrGfCrGrGrAfCrArGrArGfUrAfUfUrAfUrArGrArGfUrAfUrGfUrAfUrArGfCfUrAfUrAfCfUrGfUfCrArGrAfCrGrAfCfUfCrGfCfCfCrGrA", "modifications": "aptamer"}, "B5": {"name": "GGGAGGACGAUGCGGUGAGAGUAUUAUAGAGUCUGUAUAGCUAUACCACCAGACGACUCGCCCGA (nucleic acid)", "chain": "rGrGrGrArGrGrAfCrGrAfUrGfCrGrGfUrGrArGrArGfUrAfUfUrAfUrArGrArGfUfCfUrGfUrAfUrArGfCfUrAfUrAfCfCrAfCfCrArGrAfCrGrAfCfUfCrGfCfCfCrGrA", "modifications": "aptamer"}, "B6": {"name": "GGGAGGACGAUGCGGUGAGAGUAUUAUAGAGUCUGUAUAGCUAUACUCGCCAGACGACUCGCCCGA (nucleic acid)", "chain": "rGrGrGrArGrGrAfCrGrAfUrGfCrGrGfUrGrArGrArGfUrAfUfUrAfUrArGrArGfUfCfUrGfUrAfUrArGfCfUrAfUrAfCfUfCrGfCfCrArGrAfCrGrAfCfUfCrGfCfCfCrGrA", "modifications": "aptamer"}, "B7": {"name": "GGGAGGACGAUGCGGUGUGAGUAUUAUAGAGUCUGUAUAGCUAUACCACCAGACGACUCGCCCGA (nucleic acid)", "chain": "rGrGrGrArGrGrAfCrGrAfUrGfCrGrGfUrGfUrGrArGfUrAfUfUrAfUrArGrArGfUfCfUrGfUrAfUrArGfCfUrAfUrAfCfCrAfCfCrArGrAfCrGrAfCfUfCrGfCfCfCrGrA", "modifications": "aptamer"}, "B8": {"name": "GGGAGGACGAUGCGGGACAGAGUAUUAUAGAGUAUGUAUAGCUAUACUGUCAGACGACUCGCCCGA (nucleic acid)", "chain": "rGrGrGrArGrGrAfCrGrAfUrGfCrGrGrGrAfCrArGrArGfUrAfUfUrAfUrArGrArGfUrAfUrGfUrAfUrArGfCfUrAfUrAfCfUrGfUfCrArGrAfCrGrAfCfUfCrGfCfCfCrGrA", "modifications": "aptamer"}, "B9": {"name": "GGGAGGACGAUGCGGAGGGAUUAUUAUAGAGUCUGUAUAGCUAUACCCUCAGACGACUCGCCCGA (nucleic acid)", "chain": "rGrGrGrArGrGrAfCrGrAfUrGfCrGrGrArGrGrGrAfUfUrAfUfUrAfUrArGrArGfUfCfUrGfUrAfUrArGfCfUrAfUrAfCfCfCfUfCrArGrAfCrGrAfCfUfCrGfCfCfCrGrA", "modifications": "aptamer"}}, "note": "Strand notation (5' to 3'): a small letter for the sugar, then the base; units joined by * are phosphorothioate-linked, units joined directly phosphodiester-linked; [ ] holds rarer units or linkages, { } end groups; capitals alone tell only the bases. r = 2'-OH (RNA); f = 2'-fluoro", "data": [{"biological_target": "T1, TGFβ2 (Homo sapiens, UniProt P61812)", "T1 construct": "For bio-chemical characterization of these aptamers, two forms of mature TGFβ2 were generated, native and N-terminal his-tagged versions, in E. coli", "T1 sequence (P61812 303-414 limits assumed)": "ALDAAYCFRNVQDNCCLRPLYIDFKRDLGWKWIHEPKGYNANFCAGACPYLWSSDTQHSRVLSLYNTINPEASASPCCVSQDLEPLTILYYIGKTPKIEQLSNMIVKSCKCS", "experiment": "Dot blot binding of doped reselection aptamers to TGFβ2", "conditions": "CW128_103", "method": "TGFβ2 was serially diluted in DPBS containing 0.2 mg/ml BSA and 0.2 mg/ml tRNA. ^32P-labeled RNA (<20 pM) were incubated with TGFβ2 at room temperature for 30 min. Samples were pipetted with a multichannel pippetor onto a multiwell manifold holding layers of pre-wetted 0.45 micron nitrocellulose, hybond membrane, 3MM filter paper (the order is from top to bottom), aspirated, and washed 3× with DPBS (containing tRNA). All three filters were air dried, exposed to phosphorimager plate, analyzed by ImageQuant.", "units": {"Kd": "nM"}, "values": [{"molecule": "B1", "Kd": 0.53}, {"molecule": "B2", "Kd": 0.75}]}, {"biological_target": "T1, TGFβ2", "experiment": "Binding data as performed in MLEC inhibition assay CW115-95, 117, 129", "assay_type": "cell-based", "conditions": "full-length aptamer sequences; experiment 129", "method": "MLEC Assay. The mink lung epithelial cell proliferation assay is performed over two days. On day 1:1) media is aspirated off from Mink Lung Epithelial Cells (MLEC); 2) the MLEC are washed with 10 ml 1×PBS; 3) 3 ml Trypsin is added and Trypsinize for 3 min at 37° C.; 4) quench with 10 ml 0.5% FBS media; 5) spin at 1000 rpm for 3.30 min; 6) aspirate off supernatant; 7) resuspend pellet in 10 ml 0.5% FBS media; 8) Count 10 μl cell suspension; 9) adjust cell density to 80,000 cells/ml; 10) add 50 μl of cells/well to black bottomed 96-well plates (4000 cells/well); pipet up and down during plating process to avoid settling of cells and uneven plating; 11) incubate cells at 37° C. in 5% CO2 for 4 hrs to allow adherence of cells; 12) add 25 μl of aptamer (or media, or other test reagent, such as for example, an antibody), preferably the outer wells are not used for treated cells; 13) add 25 μl of TGFβ2 (typically 25 pg/ml); and 14) incubate cells at 37° C. in 5% CO2 overnight.\nOn day 2:1) mix 20 μl BrdU with 2 ml 0.5% FBS media; 2) add 10 μl of BrdU mixture/well; 3) incubate cells at 37° C. in 5% CO2 for 3 hrs; 4) remove media and blot plates dry on paper towels; 5) add 200 μl/well FixDenat solution and incubate for 30 min at room temperature (RT); 6) remove FixDenat solution and blot plates dry on paper towels; 7) add 100 μl /well anti-BrdU POD solution and incubate for 90 min at RT; 8) remove anti-BrdU POD solution and blot plates dry on paper towels; 9) wash plates 3× with […] washing solution with 5 min RT incubations and blot plates dry on paper towels; 10) add 100 μl /well substrate solution and incubate for 3 min at RT in dark; and 11) read plates using PSP Luciferace 1 program on TopCount (Packard Bioscience Co., Downers Grove, Ill.).", "units": {"IC50": "nM"}, "values": [{"molecule": "B1", "IC50": 5.2}, {"molecule": "B3", "IC50": 17.9}, {"molecule": "B4", "IC50": 14.5}, {"molecule": "B5", "IC50": 8}, {"molecule": "B6", "IC50": 6.5}, {"molecule": "B7", "IC50": 7.4}, {"molecule": "B8", "IC50": 12.1}, {"molecule": "B9", "IC50": 5.3}]}]}
